For two molecules, IC50 of inhibition of pIκBα ubiquitination (in vitro ubiquitination assay in HeLa extract), TNFα-stimulated NF-κB activation (nuclear p65 staining) abolished, percent of microinjected HeLa cells and inhibition of E-selectin expression, percent of microinjected HUVEC results are on record in patent US20030166587A1.

This assay concerns the target specific IκB E3 ubiquitin ligase activity of HeLa extract. The assay is described as follows: cell-based or functional assay.

Non-standard residues stand in square brackets, D forms with d. No end group written: not given here. pS = N[C@@H](COP(=O)(O)O)C(=O)O

CKKERLLDDRHD[pS]GLD[pS]MKDEE [pp21, doubly phosphorylated IκBα peptide] returned an IC50 of inhibition of pIκBα ubiquitination (in vitro ubiquitination assay in HeLa extract) of 5 µM; a TNFα-stimulated NF-κB activation (nuclear p65 staining) abolished, percent of microinjected HeLa cells of 50 to 70%; an inhibition of E-selectin expression, percent of microinjected HUVEC of 70 to 80%.

CERLLDDRHD[pS]GLD[pS]MKDEE [pp19, doubly phosphorylated IκBα peptide]: the IC50 of inhibition of pIκBα ubiquitination (in vitro ubiquitination assay in HeLa extract) turned out to be 5 µM.
